Data reported in patent publication US9975933B2, “Tumor tissue-penetrating peptide specific to neuropilin and fusion protein having same peptide fused therein” (AJOU UNIVERSITY INDUSTRY-ACADEMIC COOPERATION FOUNDATION, priority 2013, dated 2018).

Assays:
[1] = test system: HUVEC; test: Transwell assay of vascular endothelial cell permeability; assay type: cell-based, human; conditions: 30 minutes
Experimental: Based on the above experimental results, as experiments for confirming the improvement of vascular endothelial cell permeability, single peptides and Fc-TPP were treated to conduct Transwell assay.
Specifically, HUVECs were seeded into Transwell plate (Corning) at a density of 5×10^4 per well in a upper chamber using Endothelial Growth Medium, PromoCell (EGM) medium, followed by incubation at 37° C. for 3 days under 5% CO2 condition. […] Thereafter, Dextran-FITC (Sigma) 50 μg was put into the upper chamber and the medium of the lower chamber was sampled to measure its fluorescence after 30 minutes, using the principle that a fluorescent substance is observed in the lower chamber when the permeability in HUVECs was improved.

[2] = test system: A431 tumor; test: IHC of Fc-TPP infiltration in A431 tumor tissue; assay type: in vivo, Balb/c nude mice; conditions: A431 xenograft, 5 mg/kg intravenously, 3 hours
Experimental: 3 hours after injection, tumors were extracted from mice to conduct immunohistochemistry experiment. The extracted tumors were cut into 20 μm thick using a frozen section method, and stained with a primary antibody, CD31 antibody (BD Pharmingen), and a TRITC (red fluorescence)-conjugated secondary antibody. Further, in order to observe Fc-TPP distributed in the tissues, FITC (green fluorescence)-conjugated antibodies recognizing Fc were used.

[3] = test system: E-cadherin in FaDu; test: Western blot of E-cadherin in FaDu; assay type: cell-based, human
Experimental: In order to confirm the effect of TPP on cancer cells, a change in E-cadherin was analyzed in human head and neck cancer cell line FaDu, under the same conditions as above experiments through Western blot.

[4] = target: T1, NRP1-b1b2 (b1b2 domain of neuropilin-1) (Homo sapiens, UniProt O14786); test: SPR (Biacore2000) binding to b1b2 domain of neuropilin-1; conditions: for Association rate ka / Dissociation rate kd / Kd: NRP1-b1b2, SPR; for Kd: read-out: Binding affinity KD
T1 construct: b1b2 domains (273-586) of neuropilin-1
T1 sequence (O14786 273-586): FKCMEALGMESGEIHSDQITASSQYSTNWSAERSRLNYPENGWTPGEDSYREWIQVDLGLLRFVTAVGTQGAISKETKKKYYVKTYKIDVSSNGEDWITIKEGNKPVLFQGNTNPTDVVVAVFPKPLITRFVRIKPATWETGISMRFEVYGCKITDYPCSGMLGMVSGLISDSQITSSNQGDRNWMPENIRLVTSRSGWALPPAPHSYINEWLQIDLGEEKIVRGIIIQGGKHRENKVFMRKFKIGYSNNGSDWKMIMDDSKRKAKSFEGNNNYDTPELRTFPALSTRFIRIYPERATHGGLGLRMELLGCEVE
Experimental: (§1) Specifically, each b1b2 domain of neuropilin-1 and -2 was diluted with 10 mM Na-acetate buffer (pH 4.0), and fixed onto CMS sensor chips (GE healthcare, USA) in about 1000 response units (RU). […] After bond and dissociation analysis, the regeneration of CMS chip was performed by streaming a buffer (20 Mm NaOH, 1 M NaCl, pH 10.0) at a stream velocity 30 μl/min for 1 minute.

[5] = test system: VE-cadherin in HUVEC; test: Western blot of VE-cadherin in HUVEC; assay type: cell-based, human; conditions: single peptides and Fc-TPP 1 μM, 10 minutes
Source text: During this process, a decrease in vascular endothelial (VE)-cadherin, phosphorylation, etc. of endothelial cells occur. That is, VE-cadherin or epithelial (E)-cadherin involves in adhesion between endothelial cells, while forming the base of adherent junction between endothelial cells and epithelial cells. The change in molecules relieve the density of adherent junction, which results in increasing permeability of blood vessels and improving intracellular permeability.
As an experimental method for indirectly confirming improvement of vascular permeability based thereon, a change in VE-cadherin was confirmed through a Western blot. Specifically, HUVECs were seeded into 6-well plates at a density of 3×10^5 per well, followed by incubation for 24 hours. Thereafter, single peptides and Fc-TPP were treated with 1 μM for 10 minutes to perform a Western blot. Gel subjected to SDS-PAGE was transported into PVDF membrane, a primary antibody (SantaCruz) and an HRP-conjugated secondary antibody (SantaCruz) which recognize VE-cadherin and (3-actin, respectively were used for detection. ImageQuant LAS4000 mini (GE Healthcare) was used for analysis.

[6] = target: T2, NRP2-b1b2 (b1b2 domain of neuropilin-2) (Homo sapiens, UniProt O60462); test: SPR (Biacore2000) binding to b1b2 domain of neuropilin-2; conditions: for Kd: read-out: Binding affinity KD
T2 construct: b1b2 domains (275-595) of neuropilin-2
T2 sequence (O60462 275-595): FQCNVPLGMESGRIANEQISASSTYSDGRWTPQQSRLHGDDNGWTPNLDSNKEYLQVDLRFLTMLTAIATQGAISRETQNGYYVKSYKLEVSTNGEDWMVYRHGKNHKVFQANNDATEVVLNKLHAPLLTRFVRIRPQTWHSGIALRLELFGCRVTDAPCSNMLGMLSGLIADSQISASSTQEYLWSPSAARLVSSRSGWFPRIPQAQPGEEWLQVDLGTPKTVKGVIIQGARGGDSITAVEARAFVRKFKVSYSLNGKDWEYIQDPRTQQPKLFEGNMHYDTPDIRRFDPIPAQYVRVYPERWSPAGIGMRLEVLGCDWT
Experimental: as §1

[7] = test system: neuropilin-1 and -2 expressed on cell surface (SK-OV-3); test: FACS binding to neuropilin-1 and -2 expressed on cell surface; assay type: cell-based, human
Experimental: Specifically, after incubating human ovarian cancer cell line (SK-OV-3) under conditions of 5% CO2 and 37° C., 1×10^5 cells per sample were resuspended in a PBS buffer supplemented with 2% BSA and transferred to a FACS tube for conducting experiments.
Then, the mixture was reacted with cell line SK-OV-3 at 4° C. for 1 hour in the same manner and proteins were stained for conducting FACS analysis. […] This means that Fc-TPP binds specifically to neuropilin-1 and -2.
This means that the binding of Fc-TPP to neuropilin-1 and -2 is specific similar to the original ligands.

[8] = test system: PPC-1 cells; test: Confocal microscopy of intracellular penetration and co-localization with neuropilin; assay type: cell-based, human; conditions: 1 μM, 37° C., 1 hour
Experimental: In order to confirm whether Fc-TPP has intracellular penetrating capacity by neuropilin-1 and -2, like other neuropilin ligands having intracellular penetrating capacity, confocal microscopy was used to observe intracellular penetration and co-localization with neuropilin-1 and -2.
Specifically, 5×10^4 PPC-1 cells were plated into 24-well plates containing DMEM medium 0.5 ml supplemented with 10% FBS per well, followed by incubation at 37° C. for 24 hours at 5% CO2. When the cells were stabilized, each well was washed with PBS 0.5 ml. […] After the medium was removed and each well was washed with PBS, Fc-TPP was stained with an antibody (Sigma) which specifically recognizes the FITC (green fluorescence)-conjugated Fc, and neuropilin-1 and -2 was stained with a primary antibody (SantaCruz) which recognizes each of them and with a TRITC (red fluorescence)-conjugated secondary antibody (Sigma). Nuclei were stained (blue fluorescence) with DAPI and observed under confocal microscopy.

[9] = test system: HUVEC; test: Tube formation assay in HUVEC; assay type: cell-based, human; conditions: VEGF165A 20 ng/ml, 8 hours
Experimental: As an experiment confirming angiogenesis in vitro based thereon, tube formation assay was conducted. As an experimental method, 50 μl of ECMatrix was injected into 96-well plates and polymerized at 37° C. for 2 hours. […] The incubated cells were observed by a microscope to obtain images.

[10] = test system: FaDu tumor; test: In vivo Evans Blue assay of vascular permeability; design: species or system Balb/c nude mice; conditions: FaDu xenograft, 400 ng, 40 minutes
Experimental: Additionally, in order to confirm the improvement of vascular permeability in vivo, Evans Blue assay was conducted. […] 40 minutes after injection, the mice were perfused through the heart with PBS containing 1% BSA, and tumor tissues were extracted (FIG. 11d). Then, the extracted tissues were put into 1 ml of […] (Sigma) and reacted at 37° C. overnight under mild shaking condition. Thereafter, the supernatant was obtained from centrifugation to measure the absorbance (600 nm), and the amount that Evans Blue penetrated was quantified.

[11] = single peptides and Fc-TPP 1 μM

Row | Substance | permeability of HUVEC (Transwell, Dextran-FITC) [1, 11] | infiltration into tumor tissue (IHC) [2] | change in E-cadherin (Western blot) [3] | difference in binding affinity between GAGA linker and (GGGGS)3 linker clones ([4]; Fc-4A22 compared with Fc-15A22, b1b2 of neuropilin-1 and -2) | Association rate ka [4] | Dissociation rate kd [4] | Kd [4] | change in VE-cadherin (Western blot) [5] | Association rate ka [6] | Dissociation rate kd [6] | Kd [6] | cell binding capacity after reaction in advance with b1b2 domains of neuropilin-1 and -2 ([7]; 1 μM protein, 2 μM b1b2 domains, SK-OV-3) | cell binding capacity when mixed with parent ligand Sema3A or Sema3F ([7]; Sema3A (Fc-15A22P) / Sema3F (Fc-15F22P) 100 μg/ml) | cell binding capacity when mixed with VEGF165A ([7]; VEGF165A 1 μg/ml) | co-localization with neuropilin-1 and -2 [8] | intracellular penetration (confocal microscopy) [8] | permeability of HUVEC (Transwell, Dextran-FITC) ([1]; control ligands about 1.3 nM) | tube formation of HUVEC [9] | vascular permeability (Evans Blue) [10]
1 | Fc-15A22: Human IgG1 Fc with TPP 15A22 (SEQ ID NO: 6) fused to its C-terminus (GGGGSGGGGSGGGGSHTPGNSNKWKHLQENKKGRNRR) | permeability of HUVEC was improved | infiltrated into tumor cells | induced a decrease in E-cadherin | about 10 times | 4.86 ± 0.98 × 10^3 M^−1s^−1 | 2.95 ± 0.04 × 10^−2 s^−1 | 6.06 µM | VE-cadherin was decreased | 3.94 ± 0.42 × 10^3 M^−1s^−1 | 3.87 ± 0.09 × 10^−2 s^−1 | 9.8 µM |  |  |  |  |  |  |  | 
2 | Fc-15F22p: Human IgG1 Fc with TPP 15F22p (SEQ ID NO: 10) fused to its C-terminus (GGGGSGGGGSGGGGSREAPGAPRSPEPQDQKKPRPRR) | improvement of vascular permeability was induced |  | E-cadherin was decreased |  | 1.73 ± 0.26 × 10^4 M^−1s^−1 | 1.38 ± 0.12 × 10^−3 s^−1 | 0.0797 µM | induced a decrease in VE-cadherin | 1.34 ± 0.24 × 10^4 M^−1s^−1 | 1.23 ± 0.16 × 10^−3 s^−1 | 0.0924 µM | remarkably reduced | reduced | reduced | co-localized with neuropilin-1 and -2 | penetrated into cells |  |  | 
3 | VEGF165: Vascular endothelial cell growth factor-A isoform, neuropilin ligand, control group [reference compound] |  |  |  |  | 9.75 ± 0.53 × 10^5 M^−1s^−1 | 3.42 ± 0.29 × 10^−3 s^−1 |  | a decrease in VE-cadherin was observed | 1.17 ± 0.12 × 10^5 M^−1s^−1 | 3.73 ± 0.19 × 10^−3 s^−1 |  |  |  |  |  |  | permeability of HUVEC was improved | increased tube formation | increased vascular permeability
